Experimental findings from paper PMC5568246 are described below.

Experiment [1] addresses L7/L12-depleted 70S ribosomes (E. coli (endogenous in JE28)) (UniProt P0A7J3). In words: SEC. A general note: SEC sorts molecules by how far they enter the pores of the column.
Experiment [2] has the same target. The experiment is described as follows: co-sedimentation.
Experiment [3] concerns the target recombinant ribosomal protein L12 (E. coli) (UniProt P0A7K2). The experiment is described as follows: SEC.
Experiment [4] concerns the target 70S ribosomes (E. coli JE28, with endogenous L7/L12) (E. coli (endogenous in JE28)) (UniProt P0A7K2). The experiment is described as follows: other fluorescence titration.
Experiment [5] concerns the target L7/L12-depleted 70S ribosomes reconstituted with recombinant L12 (E. coli | E. coli (endogenous in JE28)) (UniProt P0A7K2). The experiment is described as follows: co-sedimentation.

pKd: −log10 of the molar value. Where only a bound is given, the exact number is not on record here.

Chain of UniProt P0A7J3 (P0A7J3 whole entry, looked up): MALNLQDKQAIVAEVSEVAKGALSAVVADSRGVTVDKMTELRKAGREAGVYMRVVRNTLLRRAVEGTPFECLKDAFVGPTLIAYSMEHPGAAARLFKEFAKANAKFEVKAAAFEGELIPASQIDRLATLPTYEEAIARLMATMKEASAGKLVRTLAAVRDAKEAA

Turning to “leader peptidase A (from UniProt P60785 1-599) (enzyme)”, the percent binding retained in experiment [1] and in experiment [2] was above 50% in each case.
The stoichiometry N is the number of molecules, sites or subunits per partner or assembly. Consider “recombinant ribosomal protein L12 (from UniProt P0A7K2 1-121) (natural protein)”, for which, in experiment [3], the stoichiometry N amounted to 2.
As usually defined, the pKd is the Kd on a negative log10 scale, so that one unit is a factor of ten. Turning to “EF-G-591 coupled with 5-iodoacetomido fluorescein (from UniProt P0A6M8 1-704) (enzyme)”, the pKd in experiment [4] was 7.64.
Consider “release factor 3 (from UniProt P0A7I4 1-529) (enzyme)”, for which, in experiment [5], the percent binding relative to complete 70S amounted to 100%.
As for “initiation factor 2 (from UniProt P0A705 1-890) (enzyme)”, in experiment [5], the percent binding relative to complete 70S was 100%.
“elongation factor G (from UniProt P0A6M8 1-704) (enzyme)” came in with a percent co-eluted with the ribosomes in experiment [1] of 20%.
